Test results taken from PMC7508878.
Where “and” joins values, the source holds several entries; their conditions need not be identical. Equal values may be shown once.

Columns and labels:
[1] = target: major capsid protein (MCP) of varicella-zoster virus (varicella-zoster virus (strain vOka)) (UniProt P09245); assay: cryo-EM structure; VZV A-capsids purified from infected MRC-5 cells, in 1x PBS; single-particle reconstruction with block-based (localized) reconstruction of an asymmetric unit, 3.7 Å
[2] = target: Tri1 protein of the varicella-zoster virus heterotriplex (varicella-zoster virus (strain vOka)); assay: as above

| Substance | stoichiometry N [1] | stoichiometry N (Tri2 per Tri1) [2] |
| --- | --- | --- |
| major capsid protein (MCP) of varicella-zoster virus (from UniProt P09245 1-1396) (natural protein) | 5 and 6 |  |
| Tri2 protein of the varicella-zoster virus heterotriplex (natural protein) |  | 2 |
